Test results reported in US9403884B2, “Peptides useful as cell-penetrating peptides” (Evonik Roehm GmbH, priority 2005, dated 2016).
fluorescein = fluorescein label (fluorescent marker on the peptide)

What was measured:
HeLa cells [1] = assay: Cytotoxicity of hLF-peptide, cell viability by MTT test; format: cell-based, human; settings: FIG. 6
Procedure: However, for live cell microscopy of peptide uptake mostly rather short incubation times of less than one hour were employed. It was therefore also tested whether for longer incubation times and higher concentrations, the peptide affected cell viability. HeLa cells were incubated with the hLF-peptide at concentrations ranging from 1.25 μM to up to 160 μM for either 6 or 0.5 hours. Afterwards cell viability was determined using an MTT test. The result thereof are depicted in FIG. 6.

HeLa cells [2] = assay: Cytotoxic effects observed during the uptake experiments (flow cytometry, live cell microscopy); format: cell-based, human; settings: concentration range of up to 40 μM, mostly incubation times of less than one hour

With “Fluo-KCFQWQRNMRKVRGPPVSCIKR-CONH2 (fluorescein-KCFQWQRNMRKVRGPPVSCIKR-NH2; cysteine pairing not given here; listed as Homo sapiens) [hLF-peptide]” the “cell viability (MTT)” value (HeLa cells [1]; after 6 hours, peptide concentrations higher than 5 μM) was “slightly reduced”, the “cell viability (MTT)” value (HeLa cells [1]; concentrations higher than 40 μM (tested up to 160 μM)) was “all cells were killed” and the “cytotoxicity (MTT cell viability)” value (HeLa cells [1]; incubated 30 minutes, concentrations up to 40 μM) was “no cytotoxicity was observed”. The “cytotoxic effects in the uptake experiments” value (HeLa cells [2]) was “no cytotoxic effects could be observed”.
